Results taken from patent US8329865B2, “Antimicrobially active peptides” (priority 2001, dated 2012).

How the values were obtained:
[1] = CF release assay with unilamellar liposomes; conditions: even after the addition of 10 μM peptide; relative to Triton X-100
Experimental: FIG. 9. Effect of DCD-derived peptides on membrane permeability. (A) Outer membrane permeability measured by peptide-mediated NPN uptake in E. coli ML-35p. E. coli cells were incubated with 10 μM NPN in the presence of various concentrations of DCD peptides in 5 mM sodium HEPES buffer (pH 7.4). Enhanced uptake due to membrane permeability was measured by an increase in fluorescence intensity (Ex350 and Em460) caused by partition of NPN into the hydrophobic interior of the outer membrane. At time point 0 min, intact E. coli ML-35p cells were added to the peptides. The results are expressed as NPN uptake factor of fluorescence in arbitrary units. All analyses were performed in triplicates. (B) Inner membrane permeability measured as the influx of ONPG in E. coli ML-35p after the addition of DCD peptides. […] The release of ONP by cytoplasmic β-galactosidase was spectrophotometrically monitored at 420 nm. […] All samples were analyzed in triplicates. […] Release was determined 4 min after peptide addition at concentrations of 1 to 10 μM. […] Reaction progress was expressed as the percentage of CF released relative to the total fluorescence released after the addition of Triton X-100 solution at the end of each experiment.
Preparation of liposomes and CF release assay. […] The liposome concentration was determined by phosphorous analysis (Rouser, G. et al. 1970 Lipids 5:494-496). […]

[2] = CD spectroscopy, secondary structure; format: physicochemical
Experimental: CD) spectroscopy. Circular dichroism (CD) measurements were performed with a Jasco J-720 CD spectrapolarimeter (Jasco, Tokyo, Japan) to determine the secondary structure of DCD-derived peptides. The data are reported as the average of three to four scans at 50 nm/min with a 1-nm step resolution. The CD spectra of the peptides (50 μM) in 10 mM sodium phosphate buffer (pH 7.0) with different amounts of NaCl (10, 100, and 150 mM) in 0 to 60% (vol/vol) trifluoroethanol (TFE) and in the presence of artificial phospholipid vesicles such as DOPC and DOPC-DOPG (1:1 molar ratio) were recorded at room temperature in the 180- to 260-nm wavelength range. The data are reported as the mean residue ellipticity in units of degrees cm^2 dmol^−1 and plotted versus wavelength. The secondary structural predictions for peptides were carried out by Jasco secondary structure software.

[3] = system: Escherichia coli, Staphylococcus aureus, Enterococcus faecalis and Candida albicans; test: CFU test (colony-forming units), Example 4; format: cell-based; conditions: sodium phosphate buffer, 37° C., 3 h, 4 h or overnight
Experimental: The antimicrobial effect of said peptides was carried out by a CFU test (test for colony-forming units) as described for the defensins by Valore et al., “Human Beta-Defensin-1: An Antimicrobial Peptide of Urogenital Tissues”, J Clin Invest 101, 1633-1642 (1998).
The test of the novel peptides was carried out with Escherichia coli, Staphylococcus aureus, Enterococcus faecalis and Candida albicans. E. coli was incubated in LB medium, E. faecalis and S. aureus in Columbia medium (Difko, BD Heidelberg) and C. albicans in casein hydrolysate medium (Merck, Darmstadt). The amounts of bacteria and yeasts were determined by photometry. The bacterial strains were incubated to an optical density of […] at 600 nm and the yeast was incubated to an optical density of 0.4-0.6 at 450 nm. The amount of the organisms was determined by plating various dilutions as follows: an OD of 1 at 600 nm is equivalent to 8.2×10^9/ml for E. coli, 1.9×10^10/ml for S. aureus and 9.0×10^9/ml for E. faecalis, and an OD of 1 at […] is equivalent to 1.4×10^8/ml for C. albicans.
The cells were washed twice with 10 mM sodium phosphate buffer (pH 7.4) and diluted to 2-3×10^7 cells/ml (E. coli, E. faecalis), 5.7×10^7 cells/ml (S. aureus) or 5×10^5 cells/ml (C. albicans) in phosphate buffer.
The cells were incubated with various amounts of the peptides in 200 μl of sodium phosphate buffer at 37° C. for 3 h, 4 h or overnight (21-24 h). The cells were diluted 1:10 to 1:100 for the bacteria and 1:500 to 1:5000 for the yeast, and 50 μl, 100 μl and 200 μl were plated on appropriate agar plates. The plates were incubated at 37° C. overnight, and the number of colonies was counted. The antimicrobial effect of the peptides has been stated as percentage of killed cells: [1−(cell survival after incubation with the peptide)/(cell survival after control incubation)]×100.

[4] = system: human erythrocytes; test: Hemolytic assay; format: cell-based; conditions: 100 μg/ml
Experimental: Hemolytic assay. The hemolytic activity of DCD peptides was determined on fresh human erythrocytes, which were separated from human EDTA blood using a Ficoll gradient. Isolated erythrocytes were washed three times in 5 ml of PBS (50 mM sodium phosphate buffer, 150 mM NaCl [pH 7.0]) and centrifuged at 1,000×g for 6 min at room temperature. The pellets were resuspended in PBS and further diluted to a concentration of 10^9 human erythrocytes/ml. Hemolytic activity was determined as follows. To the human erythrocyte solution (50 μl), PBS (1 ml) was added, followed by different concentrations of the peptides. The suspension was incubated for 30 min at 37° C. and then centrifuged at 1,000×g for 6 min at 4° C. The supernatant was monitored at 415 nm by using a spectrophotometer (Bio-Rad, Munich, Germany). The hemolytic activity of each peptide was expressed as the percentage of the total hemoglobin release compared to the release after incubation with Millipore water.

[5] = DOPC-DOPG (1:1 molar ratio) liposomes

| Compound | CF leakage from liposomes made of DOPC and DOPC-DOPG [1] | Secondary structure, Random coil ([2]; 10 mM NaP) | Secondary structure, Turn ([2]; 10 mM NaP) | Secondary structure, α-Helix ([2]; 10 mM NaP) | Secondary structure, β-Sheet ([2]; 10 mM NaP) | Secondary structure, Random coil ([2]; 60% TFE) | Secondary structure, Turn ([2]; 60% TFE) | Secondary structure, α-Helix ([2]; 60% TFE) | Secondary structure, β-Sheet ([2]; 60% TFE) | Secondary structure, Random coil [2, 5] | Secondary structure, Turn [2, 5] | Secondary structure, α-Helix [2, 5] | Secondary structure, β-Sheet [2, 5] | Secondary structure, Random coil ([2]; dH2O) | Secondary structure, Turn ([2]; dH2O) | Secondary structure, α-Helix ([2]; dH2O) | Secondary structure, β-Sheet ([2]; dH2O) | antimicrobial effect (percentage of killed cells) [3] | hemolytic activity [4] |
| --- | --- | --- | --- | --- | --- | --- | --- | --- | --- | --- | --- | --- | --- | --- | --- | --- | --- | --- | --- |
| DPYAEAASGPNPGSKSHESAQAENCGADPE [DPI, negative control peptide, unrelated scrambled peptide] | ≤ 2% | 54.8% | 19.4% | 0.0% | 25.8% | 42.5% | 6.0% | 9.6% | 42.0% | 51.2% | 19.1% | 0.0% | 29.7% | 50.3% | 15.4% | 0.0% | 34.3% | no appreciable antimicrobial effect | – |
| CC[C@H](C)[C@H](NC(=O)[C@H](CCCCN)NC(=O)[C@H](CCC(=O)O)NC(=O)[C@H](CCCCN)NC(=O)[C@H](CO)NC(=O)[C@H](CCCCN)NC(=O)[C@H](CCCNC(=N)N)NC(=O)[C@H](Cc1ccccc1)NC(=O)[C@H](Cc1ccccc1)NC(=O)[C@H](CC(=O)O)NC(=O)CNC(=O)[C@H](CC(C)C)NC(=O)[C@@H](N)CC(C)C)C(=O)NCC(=O)N[C@@H](CCCCN)C(=O)N[C@@H](CCC(=O)O)C(=O)N[C@@H](Cc1ccccc1)C(=O)N[C@@H](CCCCN)C(=O)N[C@@H](CCCNC(=N)N)C(=O)N[C@H](C(=O)N[C@H](C(=O)N[C@@H](CCC(N)=O)C(=O)N[C@@H](CCCNC(=N)N)C(=O)N[C@H](C(=O)N[C@@H](CCCCN)C(=O)N[C@@H](CC(=O)O)C(=O)N[C@@H](Cc1ccccc1)C(=O)N[C@@H](CC(C)C)C(=O)N[C@@H](CCCNC(=N)N)C(=O)N[C@@H](CC(N)=O)C(=O)N[C@@H](CC(C)C)C(=O)N[C@H](C(=O)N1CCC[C@H]1C(=O)N[C@@H](CCCNC(=N)N)C(=O)N[C@H](C(=O)N[C@@H](CCC(=O)O)C(=O)N[C@@H](CO)C(=O)O)[C@@H](C)O)C(C)C)[C@@H](C)CC)C(C)C)[C@@H](C)CC [LL-37] | – | – | – | – | – | – | – | – | – | – | – | – | – | – | – | – | – | – | up to 2.5% |
